Data: the supplement of paper PMC10266784

B1: library; numbered along this chain (parent)
chain: MAAAAAAAAEQQSSNGPVKKSMREKAVERRSVNKEHNSNFKAGYIPIDEDRLHKTGLRGRKGNLAICVIILLFILAVINLIITLVIWAVIRIGPNGCDSMEFHESGLLRFKQVSDMGVIHPLYKSTVGGRRNENLVITGNNQPIVFQQGTTKLSVENNKTSITSDIGMQFFDPRTQNILFSTDYETHEFHLPSGVKSLNVQKASTERITSNATSDLNIKVDGRAIVRGNEGVFIMGKTIEFHMGGNMELKAENSIILNGSVMVSTTRLPSSSSGDQLGSGDWVRYKLCMCADGTLFKVQVTSQNMGCQISDNPCGNTH

Variants of: B1
Assay: SGCB cell-surface expression functional score (HA stain, bin4 vs bin1, normalised to synonymous) (log10 ratio); higher = more cell-surface SGCB (functional)
Summary of the method: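 Human beta-sarcoglycan, tagged with HA and fused to YFP, was built into codon-saturation libraries and delivered by lentivirus at MOI <0.1 into HEK293 cells that stably express alpha-, gamma- and delta-sarcoglycan. After 72 hours, YFP-positive cells were sorted and grown for 5–7 days, then stained on ice with Alexa Fluor 647 anti-HA, fixed, sorted into four 5% intensity bins and amplicon-sequenced. Each variant's functional score is the log ratio of its frequency in the highest bin to that in the lowest bin, taken as the median across codons and transductions. Transductions were done in duplicate, and synonymous variants were scaled per section to mean 0, SD 0.5.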

SGCB cell-surface expression functional score (log10): each site, then its substitutions
Y184: F 0.26; G -1.39; N -1.22; M -1.01; C -0.8; D -0.8; A -0.95; T -1.17; L -1.63; P -0.93; Q -0.78; I -1.85; R -1.19; S -1.04; E -0.73; K -1.77; H -0.69; V -2.52
T186: R 0.06; H 0.62; Q 0.7; L -0.15; N -0.55; A 0.54; W -1.12; F -0.05; C -0.92; D 0.53; E 0.13; I 0.3; M -1.55; Y 0.08; V -0.85; S -0.18; G -0.44; K 0.28; P -1.73
H190: L -0.13; W -0.79; G 0.07; K 0.07; S 0.28; T 0.55; A -0.38; D -0.59; F 0.15; V -0.28; P 0.42; N 0.89; E -0.09; Q 0.16; C -0.62; M -0.84; R 0.34; I -0.36; Y 0.55
D183: A 1.15; F -1.63; L -0.71; P -1.43; R -0.21; G -1.31; N -0.15; K -0.36; Y -0.53; W 0.54; S -0.22; V -0.86; E 0.35; M -0.83; C -1.17; Q -0.56; T -0.79; I -1.89; H -0.33
E188: C -1.07; Y -1.16; S -0.61; T -0.38; V -0.11; D -0.04; P -0.15; M -2.13; K -0.62; R -0.8; W -0.68; Q 0.29; I -1.93; N -0.55; G -0.55; F -1.65; H -0.17; L -1.16; A -1.13
L191: M 0.28; G -1.07; D -1.17; I -0.16; E -1.09; N -2.28; C -0.5; R -1.37; K -0.32; H -1.37; F -0.08; S -1.19; P -1.47; Q -1.1; A -1.71
E185: G -0.26; D 0.34; P 0.33; V -0.42; F -0.44; N -0.3; M -1.36; Q -0.17; I -0.23; R -0.63; K -0.01; W -0.87; H -1.02; T -1.1; L -0.11; C 0.41; A 0.2; S 0.53; Y 0.02
H187: M -0.22; I -0.51; V 0.03; E 0.18; K -0.37; Y -0.18; S -0.12; T -1.03; F -0.63; P -1.29; G -1.69; D 0.45; L -1.47; R -0.76; Q -0.38; C 0.07; A -0.81; N -0.57; W 0.48
T182: Y -2.23
F189: E -1.49; P -0.39; M -0.25; V -1.22; L -0.46; R -2.1; T -1.23; A -0.91; N -2.42; S -1.1; Y -0.98; W -1.38; H -1.03; Q -1.04; I -1.15; K -2.58; D -1.52; C -1.67; G -1.93
